Data reported in patent US7772181B2, “Personal care compositions comprising modified variant Bowman Birk Protease Inhibitors” (Danisco US Inc., priority 2008, dated 2010).
Where a chain is given by its changes, count along the chain named. Names and notes keep the numbering of the source.

Columns and labels:
[1] = biological target: T1, bovine pancreatic trypsin (Bos taurus, UniProt P00760); assay: Shake flask screen: trypsin inhibition after growth, 2-mercaptoethanol activation and acid/heat treatment; assay type: biochemical; conditions: when not activated
T1 construct: purchased Worthington (Worthington Biochemical Corp.)
T1 sequence (P00760 24-246): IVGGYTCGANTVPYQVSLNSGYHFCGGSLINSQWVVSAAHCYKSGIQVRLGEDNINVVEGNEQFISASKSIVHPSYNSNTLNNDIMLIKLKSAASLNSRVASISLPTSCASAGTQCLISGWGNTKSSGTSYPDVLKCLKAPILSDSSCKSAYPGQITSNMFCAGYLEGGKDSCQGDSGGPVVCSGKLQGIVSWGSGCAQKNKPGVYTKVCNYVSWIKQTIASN

[2] = biological target: T2, bovine pancreatic chymotrypsin (Bos taurus, UniProt P00766); assay: Chymotrypsin inhibition assay (BBI activity); assay type: biochemical; conditions: BCE103 fusion protein in cell free broth
T2 construct: purchased Worthington
Protocol: (§1) Trypsin inhibitory assays were performed in Assay Buffer to determine the BBI activity. Specifically, a standard curve was generated by making eleven 1:1 serial dilutions (100 μL BBI+100 μL Assay Buffer) of a 2 μg/mL standard BBI solution. The BBI standard was purified from a 1 mg/ml Trypsin-Chymotrypsin Inhibitor (Sigma Cat. #T-9777) solution in 20 mM MES pH 6.0 using a hydrophobic interaction column (POROS HP2, Phenyl column, Applied Biosystems). The column was equilibrated with 20 mM MES pH 6.0, loaded with 5 mg of the inhibitor, washed with the equilibration buffer, and then the BBI was eluted with water. […] After the incubation, 100 μL of the 0.5 mg/ml trypsin substrate (diluted in Assay Buffer from a 100 mg/ml solution in DMSO), Suc-AAPR-pNA (succinyl-Ala-Ala-Pro-Arg-para-nitroanilide, Bachem), was added, mixed and the OD (A405) was monitored for 15 min, with 1 time point recorded every 12 sec using a Spectra Max 250 (Molecular Devices). […] The BBI concentration of the unknown samples was calculated from the standard curve. Alternatively, the BBI activity was measured using the same protocol but by determining bovine pancreatic chymotrypsin (Worthington) inhibition (chymotrypsin was used at the same concentration as trypsin and chymotrypsin activity was measured by adding 100 μL of a 0.4 mg/ml chymotrypsin substrate, succinyl-Ala-Ala-Pro-Phe-para-nitroanilide, Bachem).

[3] = biological target: T3, VegF (UniProt P15692); assay: BioVeris electrochemiluminescence competition binding assay, VEGF; conditions: labeled Anti-VegF antibody, biotinylated VegF
T3 sequence (P15692 207-395): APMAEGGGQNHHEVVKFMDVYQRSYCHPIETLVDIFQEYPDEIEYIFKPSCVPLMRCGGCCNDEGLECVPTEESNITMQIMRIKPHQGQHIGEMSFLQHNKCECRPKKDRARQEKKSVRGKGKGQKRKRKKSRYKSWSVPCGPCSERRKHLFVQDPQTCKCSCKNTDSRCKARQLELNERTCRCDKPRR
Protocol: Briefly, after cleavage, the pH of the cleaved sample was adjusted to 5.5, the sample was then loaded onto the column (equilibrated with 25 mM MES pH 5.5). The free 2BBIck81 was washed through the column using 25 mM sodium acetate pH 5.0 while the BCE103 catalytic core remained bound to the resin. The 2BBIck81 fraction was concentrated by ultrafiltration and analyzed using an electrochemiluminescence (ECL) based binding assay (BioVeris). The Anti-VegF antibody (Santa Cruz) and VegF (PeproTech) were labeled with the electrochemiluminescent dye and biotin, respectively, as described by the manufacturer (BioVeris). All materials were in Dulbecco's PBS (Mediatech) supplemented with 0.1% TWEEN®-80. An initial dilution series of Anti-VegF antibody (125, 250 and 500 ng/ml) and VegF (100, 150, 200 and 250 ng/ml) were tested in the binding assay to determine the concentrations of each that would give a robust ECL signal.
For testing 2BBIck81 binding, 50 μL of 500 ng/ml ECL labeled Anti-VegF antibody, 50 μL of 250 ng/ml biotinylated VegF and 100 μL 2BBIck81 (series of 12.5, 15, 31.25, 62.5, 125, 250 or 500 ng/ml) were incubated at room temperature for 2 h with shaking. Then, 50 μL of 0.2 mg/ml streptavidin coated beads were added and the reaction was incubated at room temperature for 30 minutes. The ECL signal was measured using a BioVeris M8/384 Analyzer as described by the manufacturer (BioVeris).
(§2) The resulting vectors were used to transform B. subtilis BG6006 host cells. Cultures were grown in 500 ml of MBD medium and the BBI species were purified essentially as described above and by Vogtentanz et al., 2007 (Protein Expr Purif 55:40-52 [2007]). BioVeris binding assays were performed essentially as outlined in Example 5 and by the manufacturer. Binding of the modified variant BBIs to their respective target proteins was measured using a BioVeris® binding assay, which is a competition assay that determines the binding of the modified variant BBIs to its target protein (e.g. VEGF, FGF5, TGFβ and TNFα) in the presence or absence of a labeled competitor. The competitor can be a labeled monoclonal antibody raised against the target protein or a labeled native receptor of the target protein. The electrochemiluminescent binding assays were performed essentially as described in Example 5. The apparent IC50s were determined from binding data by determining the concentration of the BBI species needed to reduce the BioVeris signal by one half. BBI scaffolds without the target binding peptide in the chymotrypsin inhibitory loop were used as negative controls.

[4] = biological target: T1, bovine pancreatic trypsin; assay: Trypsin inhibitory assay (BBI activity); assay type: biochemical
Protocol: as §1, with “water. Unknown BBI samples to be tested in the inhibitory assay were diluted as necessary, so that two or more data points would fall within the standard curve (usually 1:10, 1:100, 1:200, 1:1000, 1:2000 sample dilutions were tested and then the dilutions fine tuned if necessary).” for “water.”
The relative concentration of active control and modified BBIt-AV's was determined by a trypsin inhibitory assay using purified sBBI as a standard as described above. For some samples, the active BBI concentration was measured by residual trypsin activity according to the method described by Flecker (Flecker, P. FEBS Lett. 252:153-157 [1989]; Vogtentanz et al. supra). […]

[5] = system: human CD4+ T cells; assay: i-mune assay for peptide T-cell epitopes; assay type: cell-based
Protocol: The i-mune® assay was performed for the identification of peptide T-cell epitopes in wild type BBI using naïve human T-cells, as described in WO9953038A2 and Stickler et al, 2000 (J. Immunotherapy, 23(6), 654-660, [2000]). Peptides for use in the assay were prepared based on the wild-type BBI amino acid sequence […] CYEPCKPSEDDKEN (SEQ ID NO:13). From the full length amino acid sequence of BBI, 15mer peptides were synthetically prepared by Mimotopes US West (San Diego, Calif.). Each 15mer peptide sequence was designed to overlap with the previous and subsequent 15mer, except for three residues. The 20 peptides used to screen for T-cell epitopes, corresponding to wild type BBI sequence, were:
Briefly, human CD4+ T cells were co-cultured with dendritic cells and peptide for the intact peptide set, using the peptides shown in Figure Y. Cytokine responses were averaged within each experiment as described in Strickler et al, 2000 and a response to a peptide was tabulated as positive if the stimulation index (SI) was greater than 2.95 (FIG. 18A). SI values for each donor were compiled for each peptide set and the percent of donors responsive to each peptide is shown in FIG. 18B. The percent background response, 2.89%, was determined as the average percent responders over all the peptides in the set. The standard deviation for this dataset was 2.21%. Major epitopes are defined as having a percentage response that is 3-fold or more than the background.

[6] = biological target: TGFβ (Homo sapiens, UniProt P01137); assay: BioVeris competition binding assay, TGFβ; conditions: Target protein TGFβ1, concentration reducing BioVeris signal by one half, read-out: BioVeris Binding (apparent IC50)
Sequence of TGFβ (P01137 279-390): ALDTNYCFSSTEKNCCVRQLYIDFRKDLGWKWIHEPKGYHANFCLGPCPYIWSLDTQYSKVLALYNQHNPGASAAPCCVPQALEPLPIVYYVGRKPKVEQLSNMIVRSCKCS
Protocol: as §2

B1: D1C: BBIt-AV (SEQ ID NO:187) with single substitution D1C (protein)
chain: CDESSKPCCDQCACTKSNPPQCRCSDMRLNSCHSACKSCACYNLYGWTCFCVDITDFCYEPCKPSE
modifications: synthetic BBIt-AV sequence
For B1, the “BBIt-AV yield after acid/heat treatment relative to unmodified BBIt-AV” value [1] was “improved yields after acid/heat treatment”.

B2: 1 BBIck81: BBI with the CK37281 peptide in the trypsin loop (protein)
chain: DDESSKPCCDQCACYNLYGWTCRCSDMRLNSCHSACKSCICALSYPAQCFCVDITDFCYEPCKPSEDDKEN
In the case of B2, the “activity of the BBI (chymotrypsin inhibition) relative to fusions to the wild-type BBI” value [2] is reported as “about two fold less” and the “competition with Anti-VegF antibody for binding to VegF (ECL signal)” value [3] is reported as “also competed with the Anti-VegF antibody”.

B3: BBI: soybean Bowman-Birk protease inhibitor from Glycine max, major mature form, SEQ ID NO:13 (protein)
chain: B2 chain with Y15T, N16K, L17S, Y18N, G19P, W20P, T21Q
modifications: Glycine max
With B3 the “activated trypsin inhibitory activity, % of expected based on BCE103 cellulase concentration” value ([4]; 2 mM BME and 0.2 mM GSSG, about 24 h, room temperature) was 70-100%, the “activity of the BBI after growth versus expected from BCE103 cellulase activity” value ([4]; cell free supernatants, trypsin or chymotrypsin inhibition, before activation) was 5-20 times lower and the “immunogenicity potential in humans” value [5] was “low immunogenicity potential”. For the same molecule, the “percent background response (average percent responders over all the peptides)” value ([5]; 20 overlapping 15mer peptides, 71 donors) was 2.89% and the “peptide T-cell epitope responses” value ([5]; stimulation index > 2.95 positive, major epitope 3-fold or more over background) was “none of the peptide responses were significant”.

B4: PEN3-Q-BBIt-TGF-A40L-F50N (SEQ ID NO: 677) (protein)
chain: PSESSKPCCDQCACTKSIPPQCRCTDVRLNSCHSACSSCACYNLYGWTCVCVDMKDFCYEPCK
modifications: synthetic BBdb-AV sequence
Work on B4 yielded an IC50 [6] of 10 to 50 µM.
